Changes are numbered by the printed parent chain. Names and notes keep the numbering of the source. Each block holds one binder with its values, some of them ahead of it.
Key:
[1] = target: T1, Feline FcRn (complex of FcRn-α subunit and β-microglobulin, C-terminal His tag) (feline, UniProt A0ABI7ZNY9 23-296; Q5MGS7 21-118); experiment: SPR Biacore, FcRn amine-coupled on CM5, pH 7.2; pH 7.2; Table 2 run (FcRn amine-coupled on CM5)
T1 construct: treated here as one molecule
Protocol: (§1) Feline FcRn was isolated, prepared and mutant Fc IgGs were assayed against feline FcRn according to Strietzelg et. al. Standard RACE PCR was used to amplify feline FcRn-α subunit and β-microglobulin. FcRn-α subunit and β-microglobulin were co-transfected into HEK 293 cells and the FcRn complex was purified by IMAC affinity purification via the c-terminal His tag. KD's were measured by Biacore 3000 or Biacore T200 (GE Healthcare, Pittsburgh, PA, USA) using a CM5 sensor chip.
(§2) FcRn was immobilized on the surface of the sensor using the standard amine immobilization method to reach the desired surface density. HBS-EP was used as the immobilization running buffer and 10 mM MES; 150 mM NaCl; 0.005% Tween20; 0.5 mg/mL BSA; pH6 and pH7.2 and PBS; 0.005% Tween20; 0.5 mg/mL BSA; pH7.4 were used for method running buffers and titrations. Fc mutant IgGs were flowed over receptor surfaces and affinity was determined using Scrubber2 software analysis (BioLogic Software Pty, Ltd., Campbell, Australia) or T200 evaluation software (Table 2). Blank runs containing buffer only were subtracted out from all runs. Flow cells were regenerated using 50 mM Tris pH8. Runs were performed at 15° C.

[2] = target: T1, Feline FcRn (complex of FcRn-α subunit …); experiment: SPR Biacore, FcRn amine-coupled on CM5, pH 6; pH 6; Table 2 run (FcRn amine-coupled on CM5)
Protocol: as §1, §2

[3] = target: T2, NGF (target of felinized anti-NGF antibodies mAb2 and mAb3); experiment: cell-based or functional assay
T2 chain: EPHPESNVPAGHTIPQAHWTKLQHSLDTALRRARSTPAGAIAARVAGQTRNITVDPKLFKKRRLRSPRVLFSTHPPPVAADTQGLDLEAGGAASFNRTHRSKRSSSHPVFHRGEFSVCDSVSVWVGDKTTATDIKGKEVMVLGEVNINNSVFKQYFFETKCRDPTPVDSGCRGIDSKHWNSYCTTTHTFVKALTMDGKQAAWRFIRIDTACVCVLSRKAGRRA

[4] = target: T2, NGF (target of felinized anti-NGF …); experiment: SPR Biacore T200, target amine-coupled, 15 C
Protocol: Affinity for each mAb was assessed by Biacore and the IC50 was determined via a suitable cell based potency assay.
Flow cell 1 was used as an internal reference to correct running buffer effects. Antibody binding was measured at 15° C. with a contact time of 250 s and flow rate of 30 μl/min. The dissociation period was 300 s. Regeneration was performed with regeneration buffers (10 mM Glycine pH1.5 and 10 mM NaOH) and flow rate at 20 μl/min for 60 s each. Running/dilution buffer (1×HBS-EP, GE Healthcare, BR-1006-69, 10× including 100 mM HEPES, 150 mM NaCl, 30 mM EDTA and 0.5% v/v surfactant P20, pH7.4, 1:10 in filtered MQ H2O) was used as negative control at the same assay format.
Data were analyzed with Biacore T200 Evaluation software by using the method of double referencing. The resulting curve was fitted with the 1:1 binding model. No differences in binding affinities or IC50 were observed between wild-type and 5434 and 5428 mutant IgGs (Table 1).

[5] = target: T1, Feline FcRn (complex of FcRn-α subunit …); experiment: SPR Biacore, biotin-FcRn on SA chip, pH 6; pH 6; Table 5A run (biotin-FcRn on SA chip), ID 88
Protocol: Feline FcRn was isolated, prepared and mutant Fc IgGs were assayed against feline FcRn according to Strietzel et. al., discussed above. Standard PCR was used to amplify feline FcRn-α subunit and β-microglobulin. FcRn-α subunit and β-microglobulin were co-transfected into HEK 293 cells and the FcRn complex was purified by IMAC affinity purification via the c-terminal His tag. FcRn complex was biotin labeled through BirA enzymatic biotinylatoin reaction. KD's were measured by Biacore T200 (GE Healthcare, Pittsburgh, PA, USA) or Biacore 8K (Cytiva, Marlborough, MA, USA) using a SA sensor chip.
FcRn was captured on the surface of the sensor using a modified SA capture method. 10 mM MES; 150 mM NaCl; 0.005% Tween20; 0.5 mg/mL BSA; pH6 was used as capture, method running buffer and titrations. 1×HBS-P, 0.5 mg/mL BSA; pH7.4 was also used for method running buffer and titrations. Fc mutant IgGs were flowed over receptor surfaces and affinity was determined using T200 evaluation software or Biacore Insight Evaluation software. Blank runs containing buffer only were subtracted out from all runs. Flow cells were regenerated using 50 mM Tris pH8 or pH9. Runs were performed at 15° C.

[6] = target: T1, Feline FcRn (complex of FcRn-α subunit …); experiment: SPR Biacore, FcRn amine-coupled on CM5, pH 6
Protocol: as §1, §2

[7] = target: T1, Feline FcRn (complex of FcRn-α subunit …); experiment: SPR Biacore, biotin-FcRn on SA chip, pH 6
Method in brief: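 Runs at 15° C used either pH 6 buffer (10 mM MES, 150 mM NaCl, 0.005% Tween20, 0.5 mg/mL BSA) or pH 7.4 buffer (1×HBS-P, 0.5 mg/mL BSA), with Fc mutant IgGs as analytes. Receptor was biotinylated feline FcRn complex (co-expressed in HEK 293) on an SA chip. Affinities from blank-subtracted SPR data.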

[8] = target: T1, Feline FcRn (complex of FcRn-α subunit …); experiment: SPR Biacore, FcRn amine-coupled on CM5, pH 7.2
Protocol: as §1, §2

[9] = target: TGFβ (target of felinized anti-TGFβ antibody mAb6); experiment: SPR Biacore T200, target amine-coupled, 15 C
[10] = target: Feline FcRn (complex of FcRn-α subunit and β-microglobulin, C-terminal His tag) (feline); experiment: SPR Biacore, FcRn amine-coupled on CM5, pH 6
Feline FcRn (complex of FcRn-α subunit and β-microglobulin, C-terminal His tag) (feline), sequence (chain, as listed by the source, chain 1 of 2): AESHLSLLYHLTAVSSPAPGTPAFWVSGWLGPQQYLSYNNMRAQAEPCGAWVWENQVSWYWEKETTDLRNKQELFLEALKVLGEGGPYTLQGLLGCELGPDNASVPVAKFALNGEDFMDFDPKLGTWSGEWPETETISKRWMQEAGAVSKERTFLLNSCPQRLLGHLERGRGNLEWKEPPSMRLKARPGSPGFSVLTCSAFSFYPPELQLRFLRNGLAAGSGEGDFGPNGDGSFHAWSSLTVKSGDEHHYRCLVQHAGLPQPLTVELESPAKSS
Feline FcRn (complex of FcRn-α subunit and β-microglobulin, C-terminal His tag) (feline), sequence (Q5MGS7 21-118, chain 2 of 2): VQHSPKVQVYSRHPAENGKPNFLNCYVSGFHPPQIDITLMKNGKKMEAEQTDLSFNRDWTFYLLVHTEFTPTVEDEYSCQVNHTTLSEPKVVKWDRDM

[11] = target: TGFβ (target of felinized anti-TGFβ antibody mAb6); experiment: cell-based or functional assay
[12] = target: Feline FcRn (complex of FcRn-α subunit and β-microglobulin, C-terminal His tag) (feline); experiment: SPR Biacore, FcRn amine-coupled on CM5, pH 7.2

Kd [1]: 8630 nM
Kd [2]: 2.95 nM
IC50 (cell based potency assay) [3]: 0.036 nM
Kd [4]: 0.000582 nM
Kd [5]: 26 nM
B1: mAb3 (felinized anti-NGF antibody ZTS-768) WT, feline IgG1a (antibody)
heavy: DVQLVESGGDLVKPGGSLRLTCVASGFTYSNYWMHWVRQAPGKGLQWVARIDPYGGGTKHNEKFKRRFTISRDNAKNTLYLQMNSLKTEDTATYYCVRSGYDYYFDVWGQGTLVTVSSASTTAPSVFPLAPSCGTTSGATVALACLVLGYFPEPVTVSWNSGALTSGVHTFPAVLQASGLYSLSSMVTVPSSRWLSDTFTCNVAHPPSNTKVDKTVRKTDHPPGPKPCDCPKCPPPEMLGGPSIFIFPPKPKDTLSISRTPEVTCLVVDLGPDDSDVQITWFVDNTQVYTAKTSPREEQFNSTYRVVSVLPILHQDWLKGKEFKCKVNSKSLPSPIERTISKAKGQPHEPQVYVLPPAQEELSRNKVSVTCLIKSFHPPDIAVEWEITGQPEPENNYRTTPPQLDSDGTYFVYSKLSVDRSHWQRGNTYTCSVSHEALHSHHTQKSLTQSPGK
light: EIQMTQSPSSLSASPGDRVTITCRASENIYSFLAWYQQKPGKVPKLLIYNANTLAEGVPSRFSGSGSGTDFTLTISSLEPEDAATYYCQHHFGTPFTFGSGTKLEIKRSDAQPSVFLFQPSLDELHTGSASIVCILNDFYPKEVNVKWKVDGVVQNKGIQESTTEQNSKDSTYSLSSTLTMSSTEYQSHEKFSCEVTHKSLASTLVKSFQRSECQRE
notes: The same holds for all IgG1a variants of mAb3; also called mAb3 WT; mAb3 ID No. 88

Kd [6]: 1.02 nM
Kd [7]: 2.6 nM
Kd [8]: 0.524 nM
Kd [4]: 0.00132 nM
B2: mAb3 (felinized anti-NGF antibody ZTS-768) S434H, feline IgG1a (antibody)
heavy: B1 heavy with S440H
light: B1 light
notes: also called mAb3 S434H; mAb3 ID No. 00

Kd [9]: 0.00375 nM
Kd [10]: 120 nM
IC50 (cell based potency assay) [11]: 9 nM
B3: mAb6 (felinized anti-TGFβ antibody of Tables 1 and 2) wild-type, feline IgG1a (antibody, part only; not given: Anti-TGFβ variable domains, antibody unnamed, part only)
heavy, part: ASTTAPSVFPLAPSCGTTSGATVALACLVLGYFPEPVTVSWNSGALTSGVHTFPAVLQASGLYSLSSMVTVPSSRWLSDTFTCNVAHPPSNTKVDKTVRKTDHPPGPKPCDCPKCPPPEMLGGPSIFIFPPKPKDTLSISRTPEVTCLVVDLGPDDSDVQITWFVDNTQVYTAKTSPREEQFNSTYRVVSVLPILHQDWLKGKEFKCKVNSKSLPSPIERTISKAKGQPHEPQVYVLPPAQEELSRNKVSVTCLIKSFHPPDIAVEWEITGQPEPENNYRTTPPQLDSDGTYFVYSKLSVDRSHWQRGNTYTCSVSHEALHSHHTQKSLTQSPGK

Kd [12]: 230 nM
Kd [9]: 0.0843 nM
Kd [10]: 15 nM
IC50 (cell based potency assay) [11]: 10 nM
B4: mAb6 (felinized anti-TGFβ antibody of Tables 1 and 2) S428L, feline IgG1a (antibody, part only; not given: Anti-TGFβ variable domains, antibody unnamed, part only)
heavy, part: B3 heavy, part with S316L

From patent US20260193335A1 (ZOETIS SERVICES, published 2026)
